The record followed here is article PMC8882101.

By stoichiometry N is commonly meant the number of molecules, sites or subunits per partner or assembly.

Experiment [1] deals with Cry1Ia38 protoxin (Bacillus thuringiensis (strain IE-1)). Briefly: SEC; Superdex-200 10/300 GL, carbonate buffer (50 mM Na2CO3, 100 mM NaCl) pH 10.5; oligomeric state from the molecular weight of the eluted peaks against standards. (In general: In gel filtration, larger molecules generally elute earlier.)
For experiment [2] the target is unchanged. Briefly: SDS-PAGE of samples heated at 50 °C, Western blot; control without BBMV: Cry1Ia protein incubated in carbonate buffer pH 10.5 at 37 °C, sample heated at 50 °C for 3 min, 10% SDS-PAGE, polyclonal anti-Cry1Ia.
The target is the same in experiment [3]. Briefly: SDS-PAGE of samples heated at 50 °C, Western blot; 5 µg Cry1Ia protein incubated with 2 µg O. nubilalis BBMV in 50 µl carbonate buffer pH 10.5 at 37 °C (5-30 min); BBMV pellet heated at 50 °C for 3 min, 10% SDS-PAGE, polyclonal anti-Cry1Ia.
The target of experiment [4] is fully MJ activated Cry1Ia toxin (Bacillus thuringiensis (strain IE-1)). Briefly: SEC; Superdex-200 10/300 GL, carbonate buffer (50 mM Na2CO3, 100 mM NaCl) pH 10.5; oligomeric state from the molecular weight of the eluted peaks against standards.
Experiment [5] deals with fully trypsin activated Cry1Ia toxin (Bacillus thuringiensis (strain IE-1)). The description is as above.
For experiment [6], the target named is partially processed Cry1Ia protoxin (~67 kDa intermediate fragment) (Bacillus thuringiensis (strain IE-1)). Briefly: SDS-PAGE of samples heated at 50 °C, Western blot; 5 µg Cry1Ia protein incubated with 2 µg O. nubilalis BBMV in 50 µl carbonate buffer pH 10.5 at 37 °C (5-30 min); BBMV pellet heated at 50 °C for 3 min, 10% SDS-PAGE, polyclonal anti-Cry1Ia. (In western blotting, separated proteins are transferred to a membrane and probed.)

For Cry1Ia38 protoxin (natural protein), the stoichiometry N in experiment [1], in experiment [2] and in experiment [3] was 2 each time. On to “fully MJ activated Cry1Ia toxin (domain or fragment)”, for which, in experiment [4], the stoichiometry N turned out to be 2.

Regarding “fully trypsin activated Cry1Ia toxin (domain or fragment)”, the stoichiometry N in experiment [5] amounted to 2. “partially processed Cry1Ia protoxin (~67 kDa intermediate fragment) (domain or fragment)” yielded a stoichiometry N in experiment [6] of 2.
